In patent US20160289285A1 (Molecular Partners, published 2016):

Biological target: T1, human serum albumin (human, UniProt P02768 25-609)
T1 construct: For SEC-MALS purified from CSL Behring 20% solution; also called HSA; SA (human)
Experiment: size exclusion chromatography coupled to static light scattering

T1 sequence (P02768 25-609 limits assumed): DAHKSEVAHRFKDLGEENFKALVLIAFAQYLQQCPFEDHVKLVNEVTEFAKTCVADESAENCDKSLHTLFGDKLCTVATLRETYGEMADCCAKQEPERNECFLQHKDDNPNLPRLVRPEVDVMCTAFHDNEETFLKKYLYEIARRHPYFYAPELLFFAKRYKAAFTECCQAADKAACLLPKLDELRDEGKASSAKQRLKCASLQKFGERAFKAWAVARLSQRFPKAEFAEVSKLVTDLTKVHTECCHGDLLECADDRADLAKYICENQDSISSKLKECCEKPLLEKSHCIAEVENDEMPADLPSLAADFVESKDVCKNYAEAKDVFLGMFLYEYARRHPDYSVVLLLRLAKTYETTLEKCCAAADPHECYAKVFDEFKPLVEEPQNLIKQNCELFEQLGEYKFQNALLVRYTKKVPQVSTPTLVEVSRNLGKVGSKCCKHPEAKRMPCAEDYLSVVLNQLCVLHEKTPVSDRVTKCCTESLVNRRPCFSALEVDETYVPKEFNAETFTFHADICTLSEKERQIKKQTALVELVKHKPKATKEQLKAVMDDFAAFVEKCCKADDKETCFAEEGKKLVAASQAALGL

| binding result | Binder |
| --- | --- |
| binds | Protein #102 (designed binder) MRGSHHHHHHGSDLGKKLLEAARAGQDDEVRELLKAGADVNAKDYFSHTPLHLAARNGHLKIVEVLLKAGADVNAKDFAGKTPLHLAANDGHLEIVEVLLKAGADVNAQDIFGKTPADIAADAGHEDIAEVLQKAAGSPTPTPTTPTPTPTTPTPTPTGSDLGKKLLEAARAGQDDEVRILLKAGADVNAKDRYGDTPLHLAADIGHLEIVEVLLKAGADVNAEDYFGNTPLHLAASYGHLEIVEVLLKAGADVNAKDDYGNTPLHLAANTGHLEIVEVLLKAGADVNAQDKSGKTPADLAADAGHEDIAEVLQKAAGSPTPTPTTPTPTPTTPTPTPTGSDLDKKLLEAARAGQDDEVRILLKAGADVNAKDSTGWTPLHLAAPWGHPEIVEVLLKAGADVNAKDFQGWTPLHLAAAVGHLEIVEVLLKAGADVNAQDKSGKTPADLAADAGHEDIAEVLQKAAGSPTPTPTTPTPTPTTPTPTPTGSDLGKKLLEAARAGQDDEVRELLKAGADVNAKDYFSHTPLHLAARNGHLKIVEVLLKAGADVNAKDFAGKTPLHLAANDGHLEIVEVLLKAGADVNAQDIFGKTPADIAADAGHEDIAEVLQKAA |
| binds | Protein #109 (designed binder) MRGSHHHHHHGSDLGKKLLEAARAGQDDEVRILMANGADVNAKDYFSHTPLHLAARNGHLKIVEVLLKAGADVNAKDFAGKTPLHLAANDGHLEIVEVLLKHGADVNAQDIFGKTPADIAADAGHEDIAEVLQKLGSPTPTPTTPTPTPTTPTPTPTGSRSDLGKKLLEAARAGQDDEVRILMANGADVNAKDYFSHTPLHLAARNGHLKIVEVLLKAGADVNAKDFAGKTPLHLAANDGHLEIVEVLLKHGADVNAQDIFGKTPADIAADAGHEDIAEVLQKLGSPTPTPTTPTPTPTTPTPTPTGSRSDLGKKLLEAARAGQDDEVRILMANGADVNAKDKDGYTPLHLAAREGHLEIVEVLLKAGADVNAKDKDGYTPLHLAAREGHLEIVEVLLKAGADVNAQDKFGKTAFDISIDNGNEDLAEILQKLGSPTPTPTTPTPTPTTPTPTPTGSRSDLGKKLLEAARAGQDDEVRILMANGADVNAKDKDGYTPLHLAAREGHLEIVEVLLKAGADVNAKDKDGYTPLHLAAREGHLEIVEVLLKAGADVNAQDKFGKTAFDISIDNGNEDLAEILQKLN |
| binds | Protein #97 (designed binder) MRGSHHHHHHGSDLGKKLLEAARAGQDDEVRILMANGADVNAKDYFSHTPLHLAARNGHLKIVEVLLKAGADVNAKDFAGKTPLHLAANDGHLEIVEVLLKHGADVNAQDIFGKTPADIAADAGHEDIAEVLQKLGSPTPTPTTPTPTPTTPTPTPTGSRSDLGKKLLEAARAGQDDEVRILLKAGADVNAKDRYGDTPLHLAADAGHLKIVEVLLKAGADVNAEDYFGNTPLHLAASAGHLEIVEVLLKAGADVNAKDDAGNTPLHLAANTGHLKIVEVLLKAGADVNAQDKSGKTPADLAADAGHEDIAEVLQKLGSPTPTPTTPTPTPTTPTPTPTGSRSDLDKKLLEAARAGQDDEVRILLKAGADVNAKDYLGWTPLHLAAHEGHLEIVEVLLKAGADVNAKDVSGYTPLHLAAADGHLEIVEVLLKAGADVNAKDNTGWTPLHLSADLGHLEIVEVLLKAGADVNAQDKFGKTAFDISIDNGNEDLAEILQKLGSPTPTPTTPTPTPTTPTPTPTGSRSDLGKKLLEAARAGQDDEVRILMANGADVNAKDYFSHTPLHLAARNGHLKIVEVLLKAGADVNAKDFAGKTPLHLAANDGHLEIVEVLLKHGADVNAQDIFGKTPADIAADAGHEDIAEVLQKLN |
